The source of these data is patent publication US11653679B2, “High-purity steviol glycosides” (PureCircle Sdn Bhd, priority 2014, dated 2023).

The nature of the series: Directed evolution of UGT76G1, Rebaudioside D to Rebaudioside M, round 1 (Example 26). It is filed as biochemical. Conditions: 100 μL fresh lysate, 0.5 mM Rebaudioside D, 30° C., pH 7.2. Put shortly:
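Conversion and initial rate were determined by HPLC with CAD detection on samples taken at 2, 4, 7 and 24 h. Reactions ran at 30 °C in 50 mM phosphate buffer pH 7.2 with lysate, Rebaudioside D (0.5 mM), UDP-glucose (2.5 mM) and MgCl2 (3 mM).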

B1: UGT76G1var78: UGT76G1 variant, mutations V279I_V300A_V310I_I335V_S357C (protein, UniProt Q6VAB4 1-458, looked up, variant V279I V300A V310I I335V S357C)
UDP-glycosyltransferase 76G1: MENKTETTVRRRRRIILFPVPFQGHINPILQLANVLYSKGFSITIFHTNFNKPKTSNYPHFTFRFILDNDPQDERISNLPTHGPLAGMRIPIINEHGADELRRELELLMLASEEDEEVSCLITDALWYFAQSVADSLNLRRLVLMTSSLFNFHAHVSLPQFDELGYLDPDDKTRLEEQASGFPMLKVKDIKSAYSNWQILKEILGKMIKQTKASSGVIWNSFKELEESELETVIREIPAPSFLIPLPKHLTASSSSLLDHDRTVFQWLDQQPPSSVLYISFGSTSEVDEKDFLEIARGLADSKQSFLWVIRPGFVKGSTWVEPLPDGFLGERGRVVKWVPQQEVLAHGAIGAFWTHCGWNSTLESVCEGVPMIFSDFGLDQPLNARYMSDVLKVGVYLENGWERGEIANAIRRVMVDEEGEYIRQNARVLKQKADVSLMKGGSSYESLESLVSYISSL
On to B1, for which the “conversion Reb D to Reb M after 24 h” value is reported as 3.2% and the initial rate was found to be 8.2E+05 Reb M area/min.

B2: UGT76G1var81: UGT76G1 variant, mutations A33G_T263S_S274G_V279I_Y397E (protein, UniProt Q6VAB4 1-458, looked up, variant A33G T263S S274G V279I Y397E)
UDP-glycosyltransferase 76G1: MENKTETTVRRRRRIILFPVPFQGHINPILQLGNVLYSKGFSITIFHTNFNKPKTSNYPHFTFRFILDNDPQDERISNLPTHGPLAGMRIPIINEHGADELRRELELLMLASEEDEEVSCLITDALWYFAQSVADSLNLRRLVLMTSSLFNFHAHVSLPQFDELGYLDPDDKTRLEEQASGFPMLKVKDIKSAYSNWQILKEILGKMIKQTKASSGVIWNSFKELEESELETVIREIPAPSFLIPLPKHLTASSSSLLDHDRSVFQWLDQQPPGSVLYISFGSTSEVDEKDFLEIARGLVDSKQSFLWVVRPGFVKGSTWVEPLPDGFLGERGRIVKWVPQQEVLAHGAIGAFWTHSGWNSTLESVCEGVPMIFSDFGLDQPLNARYMSDVLKVGVELENGWERGEIANAIRRVMVDEEGEYIRQNARVLKQKADVSLMKGGSSYESLESLVSYISSL
Regarding B2, the “conversion Reb D to Reb M after 24 h” value was 15.0% and the initial rate amounted to 6.5E+06 Reb M area/min.

B3: UGT76G1var84: UGT76G1 variant, mutations F22L_Q266S_F314S_A352G_S357C (protein, UniProt Q6VAB4 1-458, looked up, variant F22L Q266S F314S A352G S357C)
UDP-glycosyltransferase 76G1: MENKTETTVRRRRRIILFPVPLQGHINPILQLANVLYSKGFSITIFHTNFNKPKTSNYPHFTFRFILDNDPQDERISNLPTHGPLAGMRIPIINEHGADELRRELELLMLASEEDEEVSCLITDALWYFAQSVADSLNLRRLVLMTSSLFNFHAHVSLPQFDELGYLDPDDKTRLEEQASGFPMLKVKDIKSAYSNWQILKEILGKMIKQTKASSGVIWNSFKELEESELETVIREIPAPSFLIPLPKHLTASSSSLLDHDRTVFSWLDQQPPSSVLYVSFGSTSEVDEKDFLEIARGLVDSKQSFLWVVRPGSVKGSTWVEPLPDGFLGERGRIVKWVPQQEVLAHGAIGGFWTHCGWNSTLESVCEGVPMIFSDFGLDQPLNARYMSDVLKVGVYLENGWERGEIANAIRRVMVDEEGEYIRQNARVLKQKADVSLMKGGSSYESLESLVSYISSL
With B3, the “conversion Reb D to Reb M after 24 h” value is listed as 1.2% and the initial rate worked out at 2.3E+05 Reb M area/min.

B4: UGT76G1var79: UGT76G1 variant, mutations E224D_T284I_V366I_I373L_K393G (protein, UniProt Q6VAB4 1-458, looked up, variant E224D T284I V366I I373L K393G)
UDP-glycosyltransferase 76G1: MENKTETTVRRRRRIILFPVPFQGHINPILQLANVLYSKGFSITIFHTNFNKPKTSNYPHFTFRFILDNDPQDERISNLPTHGPLAGMRIPIINEHGADELRRELELLMLASEEDEEVSCLITDALWYFAQSVADSLNLRRLVLMTSSLFNFHAHVSLPQFDELGYLDPDDKTRLEEQASGFPMLKVKDIKSAYSNWQILKEILGKMIKQTKASSGVIWNSFKDLEESELETVIREIPAPSFLIPLPKHLTASSSSLLDHDRTVFQWLDQQPPSSVLYVSFGSISEVDEKDFLEIARGLVDSKQSFLWVVRPGFVKGSTWVEPLPDGFLGERGRIVKWVPQQEVLAHGAIGAFWTHSGWNSTLESICEGVPMLFSDFGLDQPLNARYMSDVLGVGVYLENGWERGEIANAIRRVMVDEEGEYIRQNARVLKQKADVSLMKGGSSYESLESLVSYISSL
With B4, the “conversion Reb D to Reb M after 24 h” value came out at 8.5% and the initial rate is given as 3.8E+06 Reb M area/min.

B5: UGT76G1var80: UGT76G1 variant, mutations L243P_L379A_S389E_Q425E_Q432E (protein, UniProt Q6VAB4 1-458, looked up, variant L243P L379A S389E Q425E Q432E)
UDP-glycosyltransferase 76G1: MENKTETTVRRRRRIILFPVPFQGHINPILQLANVLYSKGFSITIFHTNFNKPKTSNYPHFTFRFILDNDPQDERISNLPTHGPLAGMRIPIINEHGADELRRELELLMLASEEDEEVSCLITDALWYFAQSVADSLNLRRLVLMTSSLFNFHAHVSLPQFDELGYLDPDDKTRLEEQASGFPMLKVKDIKSAYSNWQILKEILGKMIKQTKASSGVIWNSFKELEESELETVIREIPAPSFPIPLPKHLTASSSSLLDHDRTVFQWLDQQPPSSVLYVSFGSTSEVDEKDFLEIARGLVDSKQSFLWVVRPGFVKGSTWVEPLPDGFLGERGRIVKWVPQQEVLAHGAIGAFWTHSGWNSTLESVCEGVPMIFSDFGADQPLNARYMEDVLKVGVYLENGWERGEIANAIRRVMVDEEGEYIRENARVLKEKADVSLMKGGSSYESLESLVSYISSL
Consider B5, for which the “conversion Reb D to Reb M after 24 h” value is reported as 1.0% and the initial rate turned out to be 2.1E+05 Reb M area/min.

B6: UGT76G1var82: UGT76G1 variant, mutations E224D_L243A_F265L_R334H_A352G (protein, UniProt Q6VAB4 1-458, looked up, variant E224D L243A F265L R334H A352G)
UDP-glycosyltransferase 76G1: MENKTETTVRRRRRIILFPVPFQGHINPILQLANVLYSKGFSITIFHTNFNKPKTSNYPHFTFRFILDNDPQDERISNLPTHGPLAGMRIPIINEHGADELRRELELLMLASEEDEEVSCLITDALWYFAQSVADSLNLRRLVLMTSSLFNFHAHVSLPQFDELGYLDPDDKTRLEEQASGFPMLKVKDIKSAYSNWQILKEILGKMIKQTKASSGVIWNSFKDLEESELETVIREIPAPSFAIPLPKHLTASSSSLLDHDRTVLQWLDQQPPSSVLYVSFGSTSEVDEKDFLEIARGLVDSKQSFLWVVRPGFVKGSTWVEPLPDGFLGERGHIVKWVPQQEVLAHGAIGGFWTHSGWNSTLESVCEGVPMIFSDFGLDQPLNARYMSDVLKVGVYLENGWERGEIANAIRRVMVDEEGEYIRQNARVLKQKADVSLMKGGSSYESLESLVSYISSL
For B6, the “conversion Reb D to Reb M after 24 h” value is given as 1.1% and the initial rate worked out at 2.5E+05 Reb M area/min.

B7: UGT76G1var83: UGT76G1 variant, mutations I43V_Q342E_S357N_S375R_L379G (protein, UniProt Q6VAB4 1-458, looked up, variant I43V Q342E S357N S375R L379G)
UDP-glycosyltransferase 76G1: MENKTETTVRRRRRIILFPVPFQGHINPILQLANVLYSKGFSVTIFHTNFNKPKTSNYPHFTFRFILDNDPQDERISNLPTHGPLAGMRIPIINEHGADELRRELELLMLASEEDEEVSCLITDALWYFAQSVADSLNLRRLVLMTSSLFNFHAHVSLPQFDELGYLDPDDKTRLEEQASGFPMLKVKDIKSAYSNWQILKEILGKMIKQTKASSGVIWNSFKELEESELETVIREIPAPSFLIPLPKHLTASSSSLLDHDRTVFQWLDQQPPSSVLYVSFGSTSEVDEKDFLEIARGLVDSKQSFLWVVRPGFVKGSTWVEPLPDGFLGERGRIVKWVPQEEVLAHGAIGAFWTHNGWNSTLESVCEGVPMIFRDFGGDQPLNARYMSDVLKVGVYLENGWERGEIANAIRRVMVDEEGEYIRQNARVLKQKADVSLMKGGSSYESLESLVSYISSL
Turning to B7, the “conversion Reb D to Reb M after 24 h” value is on record as 0.5% and the initial rate stood at 4.3E+04 Reb M area/min.
